{"source": "paper PMC2528193", "key": {"[1]": {"tested_on": "PfHUp (processed PfHU, bacterial histone-like protein) (Plasmodium falciparum)", "assay": "EMSA"}, "[2]": {"molecular_target": "predicted processed PfHU (P. falciparum bacterial histone-like protein), recombinant (P. falciparum)", "assay": "SDS-resistant dimer on SDS-PAGE with anti-His Western blot"}, "[3]": {"molecular_target": "predicted processed PfHU (P. falciparum bacterial histone-like protein), recombinant (P. falciparum)", "assay": "cross-linking"}}, "note": "Where “and” joins values, the source holds several entries; their conditions need not be identical. Equal values may be shown once."}
{"substance": "30 bp probe", "values": [{"measurement": "Kd", "setting": "[1]", "value": 62.7, "unit": "nM"}]}
{"substance": "predicted processed PfHU (P. falciparum bacterial histone-like protein), recombinant (domain or fragment)", "values": [{"measurement": "stoichiometry N", "setting": "[2]", "value": 2}, {"measurement": "stoichiometry N", "setting": "[3]", "value": "2 and 4"}]}
